We go through five molecules from patent publication CN117651715A (UNIV OXFORD INNOVATION LTD, dated 2024).

In assay [1] the target is 人类CD1a池B蛋白 (human CD1a pool B protein, recombinant) (human) (UniProt P06126). Kind of assay: SPR (Biacore T200), antibody captured, human CD1a titrated, heterogeneous ligand model.
For assay [2] the target is unchanged. The assay can be described thus: SPR (Biacore T200), antibody captured, human CD1a titrated, 1:1 model. For orientation: Surface plasmon resonance follows binding to a sensor surface in real time, without labels.
The target of assay [3] is T1, 人类CD1a池B蛋白 (human CD1a pool B protein, recombinant) (human, UniProt P06126 17-300, limits assumed).
T1 construct: Recombinant protein used in ELISA, Biacore and on beads; also called 人类CD1a蛋白; CD1a包被珠 (on beads)
T1 sequence (P06126 17-300 limits assumed): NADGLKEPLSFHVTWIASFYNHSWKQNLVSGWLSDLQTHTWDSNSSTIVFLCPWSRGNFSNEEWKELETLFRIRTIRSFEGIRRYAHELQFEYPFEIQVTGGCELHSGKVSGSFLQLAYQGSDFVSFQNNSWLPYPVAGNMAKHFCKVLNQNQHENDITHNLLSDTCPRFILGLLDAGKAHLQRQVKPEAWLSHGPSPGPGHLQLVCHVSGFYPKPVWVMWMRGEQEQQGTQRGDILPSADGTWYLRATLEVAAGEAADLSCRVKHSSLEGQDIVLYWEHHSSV
Kind of assay: SPR (Biacore T200), antibody captured on anti-species F(ab')2, human CD1a titrated 0-50 nM, 1:1 model.

Assay [4] deals with T1, 人类CD1a池B蛋白 (human CD1a pool B protein, …). The assay can be described thus: SPR (Biacore T200), antibody captured, human CD1a titrated, 1:1 model.

One may read the Kd as a measure of binding affinity in units of concentration. Usually koff stands for the first-order rate constant of dissociation. A word on the kon: it is the rate constant with which the complex forms.

B1: 16(VR11834) (antibody, from another filing, V domains shown)
VH: EVQLVESGGGLVKPGGSLKLSCAASGFTFSNYAMSWVRQTPEKRLEWVAAINSNGGSAYYPDTVKDRFTISRDNAKNTLYLQMSSLRSEDTALYYCARRFYYDYGWFAYWGQGTLVTVSS
VL: DIVLTQSPASLSASVGETVTITCRASENIDSYLAWYQQKQGKSPQLLVYAATLLADGVPSRFSGSGSGTQYSLKINSLQSEDVARYYCQHYYSSPWTFGGGTKLEIK
On to B1, for which, in assay [1], the dissociation constant (Kd) was 0.392 nM, the ka 2 amounted to 514000 M⁻¹ s⁻¹, the kd 2 came out at 0.00658 s⁻¹ and the koff was 0.000729 s⁻¹. In addition, the kon in assay [1] came out at 1.86e+06 M⁻¹ s⁻¹.

B2: 110(VR12112) (antibody, from another filing, V domains shown)
VH: QSVEESGGRLVTPGTPLTLTCTVSGFSLSSYAMIWVRQAPGKGLEWIGIINSSDNTHYATWAKGRFTISKTSTTVDLKITSPTTEDTATYFCARDPYDYGYGWYFDLWGPGTLVTVSS
VL: AQVLTQTPSPVSAAVGGTVTINCQASQSVFNNKNLAWYQQKPGQPPKLLIYKASTLASGVSSRFKGSGSGTQFALTISGVQCDDAATYYCQGEFSCSSTDCVTFGGGTEVVVK
On to B2, for which, in assay [2], the Kd came out at 1.97 nM, the koff is 0.000874 s⁻¹ and the kon was 443000 M⁻¹ s⁻¹.

B3: 111(VR12113) (antibody, from another filing, V domains shown)
VH: QSVEESGGRLVTPGTPLTLTCTASGFSLSTYAMSWVRQAPGKGLEWIGIISSSGSTYYASWAKGRFTISKTSTTVDLKITSPTTEDTATYFCARETWYWLDLWGQGTLVTVSS
VL: AVEMTQTPASVSAAVGGTVTINCQASEDIYSNLAWYQQKPGQPPKLLIYGASTLASGVPSRFKGSGSGTEYTLTISGVQCDDAATYYCQCAYDSSSYGTPFGGGTEVVVK
Take B3: in assay [2], the Kd amounted to 0.0312 nM, the koff was determined as 1.47e-08 s⁻¹ and the kon is 321000 M⁻¹ s⁻¹.

B4: 77A(VR11851) (antibody, V domains shown)
VH: QSVEESGGRLVTPGTPLTLTCTVSGFSLSSYAMSWVRQAPGKGLEWIGIISSSGTTYYASWAKGRFTISKTSTTVDLKITSPTTEDTATYFCARVDYYSSGWGGLWGPGTLVTVSS
VL: AVEMTQTPASMSAAVGGTVTIKCQASEDIYSNLAWYQQKPGQPPKLLIYGASTLASGVPSRFKGSGSGTEYTLTISGVQCDDAATYYCQCTYDTSSYGNTFGGGTEMVVE
With B4, the kon in assay [3] amounted to 469000 M⁻¹ s⁻¹. In addition, in assay [4], the Kd came out at 0.24 nM and the koff was determined as 0.000113 s⁻¹.

B5: 116(VR12117) (antibody, from another filing, V domains shown)
VH: QSVEESGGRLVTPGTPLTLTCTVSGFSLSNYAMSWVRQAPGKGLEWIGIIYTTGFTYYASWVKGRFTISKTSTTVDLKITSPTTEDTATYFCARGLATYVSPPTRLDLWGQGTLVTVSS
VL: AQVLTQTPSPVSAAVGGTVTINCQASQSIYNSKNLAWYQQKPGQPPKLLIYSASTLASGVPSRFKGSGSGTQFTLTISDLECDDAATYYCQGEFSCSSVDCATFGGGTEVVVK
B5: in assay [2], the Kd came out at 2.89 nM, the koff stood at 0.0014 s⁻¹ and the kon was found to be 483000 M⁻¹ s⁻¹.
